Assay results reported in the supplement of paper PMC9876800.

System: peptide library, one residue held at a place counted from the S/T acceptor
Assay: relative phosphorylation of the sub-library (ratio to the mean residue at this position); higher = residue favoured
Conditions: human
Method in brief: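 In 384-well plates, purified recombinant kinases (human or orthologue constructs) were incubated for 90 min under kinase-specific conditions with 50 μM biotinylated degenerate peptide sub-libraries and 50 μM ATP spiked with γ-32P-ATP. Each sub-library fixed a single residue at one position around a central Ser/Thr. Relative sub-library phosphorylation, measured by phosphorimaging and densitometry of streptavidin membrane spots, is given as a ratio to the mean residue at that position.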

CSNK1G2, construct: aa43-353, sequence (P78368 43-353, looked up): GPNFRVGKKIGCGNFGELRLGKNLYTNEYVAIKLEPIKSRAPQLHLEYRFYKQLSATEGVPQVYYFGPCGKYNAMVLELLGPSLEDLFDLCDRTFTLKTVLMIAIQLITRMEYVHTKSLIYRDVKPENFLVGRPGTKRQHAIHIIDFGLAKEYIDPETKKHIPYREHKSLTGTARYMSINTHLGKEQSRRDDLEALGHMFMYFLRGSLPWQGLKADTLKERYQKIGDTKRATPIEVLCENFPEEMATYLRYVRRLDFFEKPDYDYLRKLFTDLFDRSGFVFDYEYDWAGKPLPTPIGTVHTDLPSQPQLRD

CSNK1G2, construct: aa43-353 (from UniProt P78368)
relative phosphorylation
Conditions	at +1	at +2	at +3	at +4	at -1	at -2	at -3	at -4	at -5
A fixed	0.721	0.84	0.944	0.864	1.07	1.17	0.642	1.13	0.845
D fixed	0.589	0.43	1.14	1.31	1.52	1.2	4.54	1.46	2.48
E fixed	1	0.999	0.339	1.25	2.85	4.44	2.79	1.85	1.89
F fixed	0.973	1.33	1.29	0.996	0.834	0.524	0.55	0.896	0.82
G fixed	0.636	0.516	1.23	0.746	0.797	0.686	0.705	0.767	0.79
H fixed	0.986	1.21	1.59	0.806	0.904	0.682	0.652	0.861	0.886
I fixed	1.88	1.32	1.08	0.961	0.902	0.666	0.465	0.694	0.875
K fixed	0.517	0.942	0.54	0.702	0.774	0.659	0.891	0.877	0.968
L fixed	1.55	0.605	0.944	1	1.02	0.656	0.458	0.842	0.76
M fixed	1.36	1.3	1.09	1.03	0.484	0.594	0.561	0.817	0.799
N fixed	0.672	0.875	0.732	0.797	0.807	1.18	0.766	0.858	0.859
P fixed	0.44	0.537	0.738	0.947	0.965	0.876	0.577	1.05	0.745
Q fixed	0.592	0.618	0.61	0.936	1.03	1.04	0.707	1.03	1
R fixed	0.813	0.996	0.687	0.684	1.11	0.695	0.895	1.02	0.961
V fixed	1.94	1.46	1.29	1.17	0.766	0.813	0.44	0.733	0.686
W fixed	0.852	1.34	1.27	1.35	0.589	0.5	0.652	1.15	0.821
Y fixed	1.47	1.68	1.49	1.45	0.569	0.619	0.711	0.971	0.816
pThr fixed	1.33	1.36	2.58	3.98	3.89	9.46	62.6	8.08	4.7
pTyr fixed	2.52	5.33	19.2	6.91	2.93	6.96	8.28	6.71	6.32
